Assay results taken from US6417168.

Tests used:
[1] = biological target: human epidermal growth factor receptor (EGFR), full-length wild type (human) (UniProt P00533); assay: cell-based or functional assay
[2] = biological target: ΔEGFR, extracellular-deleted mutant human EGFR (EGFRvIII) (human) (UniProt P00533); assay: cell-based or functional assay

Substance: T691stop neu (truncated rat oncogenic p185neu, stop codon at amino acid 691, val→glu at amino acid 664) (from UniProt P06494 23-687) (receptor)
- apoptosis of U87/T691 cells, serum deprivation combined with radiation (DAPI) [1]: 33%
- inhibition of anchorage-independent growth in U87MG parental cells lacking ΔEGFR [1]: 75.2%
- phosphorylation content of immunoprecipitated p155ΔEGFR monomers (scanning densitometry, PY-20 blot) [2]: 33.7%
- soft agar growth of U87MG.ΔEGFR/T691s cells, reduction compared to U87MG.ΔEGFR cells [2]: 45%
- soft agar growth of U87MG.ΔEGFR/T691s cells, reduction compared to parental U87MG cells [2]: 41.3%

Substance: N757 (Nneu K757M, ATP-binding mutant of rat cellular p185) (from UniProt P06494 23-1257) (receptor)
- EGF-induced down-regulation of cell surface EGFR (flow cytometry), maximum reduction [1]: 20 to 25%

Substance: N691stop (truncated rat cellular p185, stop codon for Thr^691) (from UniProt P06494 23-690) (receptor)
- EGF-induced down-regulation of cell surface EGFR (flow cytometry), maximum reduction [1]: 20 to 25%

Substance: wildtype cellular rat p185 (Nneu) (from UniProt P06494 23-1257) (receptor)
- co-downregulation of cellular p185 with EGFR upon EGF treatment (flow cytometry, M1 cells) [1]: 20%
